Data from the nanobody polyreactivity screen of Harvey et al. (2022).

Assay: yeast display, Sf9 membrane polyspecificity reagent, FACS + sequencing; frameworks hold sequencing errors
Summary of the method: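 Synthetic nanobody libraries on Saccharomyces cerevisiae BJ5465 were galactose-induced for 36–48 hours, stained 1 hour at 4 °C with 10% biotinylated, detergent-solubilized Sf9 membrane reagent and enriched on streptavidin microbeads. FACS then separated cells into low and high (top ~1%) gates by anti-HA (expression) and streptavidin (reagent binding) fluorescence. Genes were colony-PCR amplified, MiSeq 2 × 250 sequenced and CDR-length filtered. A clone's polyreactivity label is that of its gate of origin.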

Sequence	polyreactivity (PSR sort gate)
QVQLVESGGGLVQAGGSLRLICAASGSIFLFNAMGWYRQAPGKERQLVAAISKSGGSTHYADSVKGRFTISRDNAKNTVYLQMNSLKPEDSAVYYCAARVGDLGSQKTDSVYRVYYWGQGTQVTVSS	low polyreactivity
QVQLVESGGGLVQAGGSLRLSCAASGRIFGHYVMGWYRQAPGKERELVAGISSGGITYYADSVKGRFTISRDNAKNTVYLQMNSLKPEDTAVYYCAARVYYVRGSDTMDYWGQGTQVTVSS	low polyreactivity
QVQLVESGGGLVQAGGSLRLSCAASGSTFSRYAMGWYRQAPGKERELVAAISWGGNTYYADSVKGRFTISRDNAKNTVYLQMNSLKPEDTAVYYCNRYTKLYNTMDYWGQGTQVTVSS	high polyreactivity
QVQLVESGGGLVQAGGSLRLSCAASGITFGRNAMGWYRQAPGKERELVAAISRGGSTNYADSVKGRFTISRDNAKNTVYLQMNSLKPEDTAVYYCNARSWPHGSWIPIHRRYGYWGQGTQVTVSS	high polyreactivity
QFQLVESGGGLVQAGGSLRLSCADSGFIFFSNARPWYRHAPGKDRELVAVIDRATSTYYADSVKGRFTISRDNAKYTVYLQMNSLKPEDTAVYYCNADGEEVYDCNYFLSFKGDYWGQGTQVTVSS	low polyreactivity
QVQLVESGGGLVQAGGSLRLSCAASGSILGYYAMGWYRQAPGKERELVAANTASGGSTYYADSVKGRFTISRDNAKNTVYLQMNSLKPEDTAVYYCAAQYYATYGYWGQGTQVTVSS	low polyreactivity
QVQLVESGGGLVQAGGSLRLSCAASGYIFKSYVMGWYRQAPGKERELVAAISWGGGRTYYADSVKGRFTISRDNAKNTVYLQMNSLKPEDTAVYYCAADTKVGNGIKFDYWGQGTQVTVSS	high polyreactivity
QVQLVESGGGLVQAGGSLLLSCAASGSIYVNNAMGWYRQAPGKERELVAAISRSGGSTYYADSVKGRFTISRDSAKKTVYLQMNSLKPEDTAVYYCATVHRSSTPPEFNYSGQGTQVTVSS	high polyreactivity
QVQLVESGGGLVQAGGSLRLSCAASGSIFSAYSMGSYRQAHGKEREFVAAISKSGSSTYYADSVKGRFTISRDNAKNTVYLQMNSLKPEDTAVYYCAAESSSYYGYYIYYYWGQGTQVTVSS	high polyreactivity
QVQLVESCGGLVQAGGSLRLSCSASGFIIPYYAMGWYRQAPGKERELVAAISYSGDSTYYADSVKGRFTISRDNAKNTVYLLMISLKPEDTAVYYCAADVEQYYPLLTFDYCGQGTQVTVSS	low polyreactivity
QVQLVESGGGLVQAGGSLRLSCAASGFIFADNTMGWYRQAPGKERELVAAISRRGGSTYYADSVKGRFTISRDNAKNTVYLQMNSLKPEDTAVYYCAARPFVKHDYWGQGTQVTVSS	high polyreactivity
QVQHVESGGGLVQAGGSLRLSCAASGSIFGQYAMGWDRQSPGKERELVAAISTSGGSTYYADSVKGRFTISRDNAKYSVYLQMYSLKPEDTAVYYCNAFNYGTQTYGYWGQGTQVTVSS	high polyreactivity
QVHLVESGRGLLQAGGSLRLSCAPSGRTFGVYSMGWYSQAPGKERELVAAISWSGDRTYYADSVKGRFTISRDYAKNTVYLQMNSLKPEDPALDYAEYHGAKYDYWGQGTQVTVSS	high polyreactivity
QVQLVESGGGLVQAGGSLRLSCAASGITFLRNTMGWYRQAPGKERELVAAISRCGSTYYADSVKGRFTISRDNAKNTVYLQMNSLKPEDTAVYYCNAPSYVQATDYDYWGQGTQVTVSS	high polyreactivity
QVQLVESGGGLVQAGGSLRLSCAASGSNFIPNAMGWYRQAPGKERELVAAIRSGRSTYYADSVKGRITISRDNANNTVYLQMNSLQPEATAVYYCAADTYPYYYYLARYYYWGQCTQVTVSS	low polyreactivity
QVHLVESGGGLVQAGGSLRLSCAASGRISFNAMGWYRQAHAKERELVAAISRRGGSTYYADSVKGRFTISRDNAKNTVSLQMNSLKPEDTAVYYCAPDIIRPVTVDYWGQGTQVTVSS	high polyreactivity
QVQLVESGGGLVQAGGSLRLSCAASGFIFGYNVKGWYRQAPGKERELVAAISSRGSSTYYADSVKGRFSISRDNAKNTVYIQMNSLKPEDTAVYYCAAYSSYNSWVSRRYGHDYWGQGTQVTVSS	high polyreactivity
QVQLVESGGGLVQAGGSLRLSCAASGSIFRYYAMGWYRQAPGKERELVAAISSGDSTNYADSVKGRFTISRDNAKNTVYLQMNSLKPEDTAVYYCAAGVVRGPGYYRKYYYWGQGTQVTVSS	high polyreactivity
QVQLVESVGGLVQAGGSLRLSCAASGIIFWWYAIGWYRQAPGKERELVAAINWSGSSTYYADSVKGRFTISRDNAKNTVYLQMKSLKPEDTAVYYCATAGIIQAESEYLSGYDYWGQGTQVTVSS	high polyreactivity
QVQLVESGGGLVQAGGSLRLSCAASGSTFVENAMGWYRQAPGKERELVAAITSSGGSTYYADSVKGRFSNSRDNAMNTVYLQMNSLKPEDTSVDYCGVDYIYDDAYNYWGQGTQVTVSS	high polyreactivity
QVQHVESGGGLVQAGGSLRLSCAASGGIFRFYAMGWYRQAPGKERELVARITSSGGGTYYADSVKGRFTISRDNAKNTVYLQMNSLKPEDTAVSYCAALVYSSYPAGWYDYWGQGTQVTVSS	high polyreactivity
QVQIVVSGGGLVQAGGRRRLSCAASGRFFWVYAMGWYRQAPGKERELVAAISRSGGITSYADSVKGRYTISRDNANYTVYLQMNSLKPEDTAVYCCAARSYFDGFYYWGQGAQVTVSS	high polyreactivity

Sequence	polyreactivity (PSR sort gate)
QEQLHESGGGQVQAGGSLLLSCAASGNIIRYYYIGCYRQAPGKEPELVAAITYGTSTNYADSVKGRFTISRDNAKNTVYLQMNSLKPEDTAVYYCAVDVNYGDPLDNWGQGTQVTVSS	high polyreactivity
QVQLVESGGGLVQAGGSLRLSCAASGRIFDANAMGWYRQAPGKERELVAAITYSGGRTYYADSVKGRFTISRDNAKNTVYLQMNSLKPEDTAVYYCAKRYAYIYDSWGQGTQVTVSS	low polyreactivity
QVQLVESGGGLVQAGGSLRLSCAASGSTFDNYVMGWYRQAPGKERELVAAISRRGGNTYYADSVKGRFTISRDNAKNTVYLQMNSLKPEDTAVYYCAADPYGYGHWGDYWGQGTQVTVSS	low polyreactivity
HVQLVESGGGLVQAGGSLRVSCAASGSILTRNAMGWYRQAPGKERELVAAITGSGGRTYYADSVKGRFTISRDNAKNTVDLQMNSLKPEDTAVYYCAAGWRFGRYSGDYWGQGTQVTVSS	high polyreactivity
QVQLVESGGGLVQAGGSLRLSCAASGLIFQLYAMGWSRQAPGKERELLAAITIRDGSTYYADSVKGRFTISRDNAKNTVYFQMNSLKPEDTAFYFCAAEPVYYYPWSQYDYWGQGTQVTVSS	high polyreactivity
QVQLVESGGGLVQAGGSLRLSCAASGSTFGPYVMGWYRQAPGKERELVATITSDDSTNYADSVKGRFTISRDNAKNTVYLQMNSLKPEDTAVYYCAVERDYWTKASYYWGQGTQVTVSS	low polyreactivity
QVQLVESGGGLVQAGGSLRLSCADSGTTFVKYAMGWYRQAPGKERELVAAISSRGGRTYYADSVKGRFTISRDNAKNTVYLQMNSLKPEDTEVYYCNKGTRLDGEYEYWGHGTQVTVSS	high polyreactivity
QDQLVKSGGGLVQAGGSLLLSCAASGHTFSGYVMGWYRPAHGKERELVAAIRSGGSTYYADSVKGRFTISRDNAKKTVYLQMNSLKPEDTAVYYCAKSVTRYRTSAYGYWGQGTQVTVSS	high polyreactivity
QVQLVESGGGLVQAGGSLRLSCAASGSTFDVNAMGWYRPAPGKERELVAAISWNSGSTYYADSVKGRFTISRDNAKNTVYLQLNSLKPEDTAVYYCAATYGTGRRSKYGYWGQGTQVTVSS	high polyreactivity
QVQLVESGGGLVQAGGSLRLSCAASGFTFEGYAMGWYRQAPGKERELVAAISDNGGRTYYADSVKGRFTISRDNAKNTVYLQMHPLTPEETEVYYCNARPAYSGPDYDYYHGRRYDYWGQGTQVTVSS	low polyreactivity
QVQLVESGGGLVQAGGSLRLSCAASGSILDPNAMGWYRQAPGKESELVANITNGGRTNFADSVKGRFTISRDNAKNTVYFQMNRLKPEDTAVYYCAKDSTFNSVTVLAPIIYDSWGQATQVTVSS	low polyreactivity
QVQLVESGGGLVQAGGSLRLSCAASGRTFGYYAMGWYRQAPGKERELVATITWSGGSTYYADSVKGRFTISRDNAKNTVYLQMNSLKPEDTAVYYCATGQYGYWYGTENDYWGQGTQVTVSS	low polyreactivity
QVQLVESGGGLVQAGGSLRLSCAASGRTVSGYSMGWYIQAPGKERELVARITSGYSTNYADSVKWRFTISRDNAKNTVYLQMNCMKPEDTAVYYCAADRVWAFWTYGYWGQGTQVTVSS	low polyreactivity
QVQLVESGGGLVQAGGSLRLSCAASGRIFSYYTMGWYRQAPGKERELVAAITASDGDTYYADSVKGRFTISRDNAKNTVYLQMNSLKPEDTAVYYCNAELFSVNGYDYWGQGTQVTVSS	low polyreactivity
QVKLVESGGGLVQEGGSLRLSCAASGRICGNYSMGWYRQAPGKERELVAAIDLSGDSTYYADSVKGRFTISRDNAKNTVYLQMNSLKPEDTAVYYCAATDWFSEYYWGQGTQVTVSS	low polyreactivity
QVQIVESGGGLVQAGGSLRLSCAASGSIFDDYAMGWYRQAPGKERELVAAISSGVSTDYADSVKGRFTISRDNAKNTVYLQMYSLKPEDTAVYYCAADDQYRVTLGYDYWGQGTQVTVSS	low polyreactivity
QVHLVESGGGLVQAGGSLRLICAASGRILYLYAMGWYRQAPGKERELVARISQRDGSTYYADSVKGRFTISRDNAKNTVYLQMNSLKPEDTAVYYCNADFYLGSYGYSYDYWGQGTQVTVSS	low polyreactivity
QVQLVESGGGLVLAGGSLRLSCAASGRTFIGYALGWYRQAPGKERELVAAISPGGSTKYADSVKGRFTISRDNAKNTVYLQINSLKPEDNAVYYGAVGWSYYAGLRHRYYSGFDYWGQGTQVTVSS	low polyreactivity
QVQLVESGGGLVQAGGSLRLSCAASGSIFEIYDMGWYRQAPGKERELVASIRTSGGSTYYAESVKGRFTISRDNAKNTVYLLMNSLKPEDTAVYYCATGWSWYHPDYDYWGQGTQVTVSS	low polyreactivity
QVQLVESGGGLVQAGGSLRLSCAASGRIFPYYAMGWYRQAPGKEREFVAAITRRGTSTYYADSVKGRFTISRDNAKNTVYLQMNSLKPEDTAVYYCNKDIISLSRSYGYWGQGTQVTVSS	high polyreactivity
QVQLVESAGGLVQSGGSLRLSCPASGRIFYLNAQGWYRQAPGKERELVAAITWSGGRTYYADSVKGRFTISRDYAKNSVYLQMNSLKPEDTAVYYCAAVPRPGPNTVLTPYGYWGQGTQVTVSS	high polyreactivity
